The values that follow come from patent US20250289885A1 (TRUSTEES OF BOSTON UNIVERSITY, published 2025).

The target of the test is T1, human Notch1-derived receptor overexpressed on CHO-K1 cells (human, UniProt P46531 19-1762, limits assumed).
T1 construct: Cells also express H2B-mTurq; also called Notch1 receptors
Put plainly: fluorescence microscopy of JFX650-labelled probody on CHO-K1 cells overexpressing a human Notch1-derived receptor. The protocol:
FIGS. 36A and 36B present data showing Cleavage-Dependent Binding of a Brontictuzumab-Based Probody to Notch1 Receptors. A probody containing a brontictuzumab-based scFv was fused to a TEV cleavable linker and a soluble form of the human Notch1 NRR. Probodies containing either (FIG. 36A) the V1667D NRR mutant NRR, or (FIG. 36B) wild-type NRR were tested. The probodies also contained a HaloTag for labeling with a JFX650 dye. Binding of the probody to Notch1 receptors was tested using uncleaved and TEV protease-cleaved probody. The evaluated cells were based on CHO-K1 celle overexpressing a human Notch1-derived receptor; cells also expressed H2B-mTurq as a fluorescent marker (inset). Brontictuzumab is an antibody that binds the NRR from Notch1 (NRR1). Brontictuzumab (aka OMP-52M51) is originally from Oncomed Pharmaceuticals. This antibody is distinct from the Genentech anti-NRR1 used in our receptor and other Notch1 probody designs.

T1 sequence (P46531 19-1762 limits assumed): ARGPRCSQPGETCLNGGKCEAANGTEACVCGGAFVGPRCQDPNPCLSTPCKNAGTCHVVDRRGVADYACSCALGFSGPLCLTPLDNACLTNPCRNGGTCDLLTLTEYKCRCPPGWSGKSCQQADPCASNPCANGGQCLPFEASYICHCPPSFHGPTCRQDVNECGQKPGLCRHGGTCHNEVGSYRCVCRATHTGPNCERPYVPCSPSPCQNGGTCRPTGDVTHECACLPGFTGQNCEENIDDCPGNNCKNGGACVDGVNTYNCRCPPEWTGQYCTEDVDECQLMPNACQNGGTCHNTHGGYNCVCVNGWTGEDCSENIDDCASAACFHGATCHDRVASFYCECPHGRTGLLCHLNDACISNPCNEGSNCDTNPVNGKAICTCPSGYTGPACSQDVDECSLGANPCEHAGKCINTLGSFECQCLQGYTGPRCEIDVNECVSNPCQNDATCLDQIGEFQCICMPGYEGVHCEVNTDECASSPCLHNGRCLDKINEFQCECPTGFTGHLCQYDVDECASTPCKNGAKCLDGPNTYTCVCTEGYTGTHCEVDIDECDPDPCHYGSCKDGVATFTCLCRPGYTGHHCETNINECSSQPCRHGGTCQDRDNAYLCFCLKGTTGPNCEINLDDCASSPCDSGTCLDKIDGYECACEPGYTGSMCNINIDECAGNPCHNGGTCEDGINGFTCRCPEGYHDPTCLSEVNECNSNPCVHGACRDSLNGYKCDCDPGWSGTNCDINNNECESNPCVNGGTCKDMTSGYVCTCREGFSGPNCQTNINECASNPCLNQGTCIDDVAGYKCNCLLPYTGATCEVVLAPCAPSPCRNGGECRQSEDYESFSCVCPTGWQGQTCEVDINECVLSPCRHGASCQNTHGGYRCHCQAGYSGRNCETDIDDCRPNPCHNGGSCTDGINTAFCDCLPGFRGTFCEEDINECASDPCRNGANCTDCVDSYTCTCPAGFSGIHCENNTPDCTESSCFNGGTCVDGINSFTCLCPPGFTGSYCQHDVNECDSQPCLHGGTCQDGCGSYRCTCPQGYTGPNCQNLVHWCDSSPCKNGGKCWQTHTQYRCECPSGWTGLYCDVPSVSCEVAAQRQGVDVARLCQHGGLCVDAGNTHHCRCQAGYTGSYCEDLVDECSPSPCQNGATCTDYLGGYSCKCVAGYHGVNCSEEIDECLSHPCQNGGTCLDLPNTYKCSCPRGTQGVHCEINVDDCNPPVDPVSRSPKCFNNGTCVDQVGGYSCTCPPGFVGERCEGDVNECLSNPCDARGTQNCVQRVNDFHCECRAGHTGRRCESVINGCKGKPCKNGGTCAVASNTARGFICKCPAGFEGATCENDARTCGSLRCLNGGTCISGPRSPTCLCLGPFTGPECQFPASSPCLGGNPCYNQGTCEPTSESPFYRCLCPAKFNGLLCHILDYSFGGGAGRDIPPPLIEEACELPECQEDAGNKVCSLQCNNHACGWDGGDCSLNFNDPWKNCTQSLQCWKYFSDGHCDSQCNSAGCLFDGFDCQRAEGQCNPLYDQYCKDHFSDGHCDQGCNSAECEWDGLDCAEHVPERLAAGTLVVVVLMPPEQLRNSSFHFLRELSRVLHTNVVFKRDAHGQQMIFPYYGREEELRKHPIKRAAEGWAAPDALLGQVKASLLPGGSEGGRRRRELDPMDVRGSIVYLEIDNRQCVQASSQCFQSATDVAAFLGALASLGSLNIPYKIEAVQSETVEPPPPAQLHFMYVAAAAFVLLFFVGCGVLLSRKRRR

B1: TEV-cleavable Anti-Notch1 probody, with brontictuzumab scFv, Wild-type NRR (HaloTag-brontictuzumab-scFv-TEVcs-hNRR1^WT), intact (uncleaved) (other)
chain: YPYDVPDYATGMAEIGTGFPFDPHYVEVLGERMHYVDVGPRDGTPVLFLHGNPTSSYVWRNIIPHVAPTHRCIAPDLIGMGKSDKPDLGYFFDDHVRFMDAFIEALGLEEVVLVIHDWGSALGFHWAKRNPERVKGIAFMEFIRPIPTWDEWPEFARETFQAFRTTDVGRKLIIDQNVFIEGTLPMGVVRPLTEVEMDHYREPFLNPVDREPLWRFPNELPIAGEPANIVALVEEYMDWLHQSPVPKLLFWGTPGVLIPPAEAARLAKSLPNCKAVDIGPGLNLLQEDNPDLIGSEIARWLSTLEISGGGGGSTGDGGGGQVQLVQSGAEVKKPGASVKISCKVSGYTLRGYWIEWVRQAPGKGLEWIGQILPGTGRTNYNEKFKGRVTMTADTSTDTAYMELSSLRSEDTAVYYCARFDGNYGYYAMDYWGQGTTVTVSSGGSSRSSSSGGGGSGGGGQAVVTQEPSLTVSPGGTVTLTCRSSTGAVTTSNYANWFQQKPGQAPRTLIGGTNNRAPGVPARFSGSLLGGKAALTLSGAQPEDEAEYYCALWYSNHWVFGGGTKLTVLGSNSGGTLEGGGSGENLYFQGGGGGRTGGGSEQKLISEEDLGGGSILDYSFGGGAGRDIPPPLIEEACELPECQEDAGNKVCSLQCNNHACGWDGGDCSLNFNDPWKNCTQSLQCWKYFSDGHCDSQCNSAGCLFDGFDCQRAEGQCNPLYDQYCKDHFSDGHCDQGCNSAECEWDGLDCAEHVPERLAAGTLVVVVLMPPEQLRNSSFHFLRELSRVLHTNVVFKRDAHGQQMIFPYYGREEELRKHPIKRAAEGWAAPDALLGQVKASLLPGGSEGGRRRRELDPMDVRGSIVYLEIDNRQCVQASSQCFQSATDVAAFLGALASLGSLNIPYKIEAVQSETVEPGSLVPRGSSHHHHHHGPV
modifications: HaloTag labelled with JFX650 dye
notes: also called Brontictuzumab-based probody, wild-type NRR
Take B1: the binding result is on record as “no binding”.
